In the data set the target is Recombinant His-tagged SF2/ASF (rSF2/ASF) (UniProt Q07955).

Experimental findings from US20050171026 are described below.

Recombinant His-tagged SF2/ASF (rSF2/ASF), sequence (Q07955 whole entry): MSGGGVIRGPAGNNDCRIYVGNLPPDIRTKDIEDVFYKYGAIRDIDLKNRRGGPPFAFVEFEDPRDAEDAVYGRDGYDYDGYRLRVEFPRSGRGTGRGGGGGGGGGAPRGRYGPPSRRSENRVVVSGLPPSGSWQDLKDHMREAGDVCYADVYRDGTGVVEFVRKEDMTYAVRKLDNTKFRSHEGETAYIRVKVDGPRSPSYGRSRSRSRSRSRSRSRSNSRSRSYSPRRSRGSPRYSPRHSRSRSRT
Glutathione S-transferase-tagged mClk1/Sty (recombinant Clk1/Sty), sequence (chain, as listed by the source): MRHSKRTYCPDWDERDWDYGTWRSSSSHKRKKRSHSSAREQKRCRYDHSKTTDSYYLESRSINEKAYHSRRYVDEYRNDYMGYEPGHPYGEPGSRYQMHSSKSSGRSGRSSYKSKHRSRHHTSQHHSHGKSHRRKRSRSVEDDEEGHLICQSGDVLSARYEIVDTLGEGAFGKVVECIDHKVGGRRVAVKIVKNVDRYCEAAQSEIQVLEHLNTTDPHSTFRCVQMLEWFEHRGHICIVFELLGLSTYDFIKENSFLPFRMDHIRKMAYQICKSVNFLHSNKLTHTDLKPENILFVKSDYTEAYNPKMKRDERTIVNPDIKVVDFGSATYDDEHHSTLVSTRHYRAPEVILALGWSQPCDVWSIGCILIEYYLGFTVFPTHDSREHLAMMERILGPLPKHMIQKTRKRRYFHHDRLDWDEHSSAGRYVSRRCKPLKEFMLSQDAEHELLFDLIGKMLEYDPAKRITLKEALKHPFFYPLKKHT

Turning to “Glutathione S-transferase-tagged mClk1/Sty (recombinant Clk1/Sty)”, the “electrophoretic mobility of rSF2/ASF on SDS-PAGE / Western blot with AK103 (phosphorylation state)” value is “rSF2/ASF exhibited reduced electrophoretic mobility in the presence of Clk 1/Sty (FIG. 2A, lane 2) compared with the rSF2/ASF alone”.
